# Test results: publication PMC6457933 (Science Advances, 2019)
# B1: Krokinobacter eikastus rhodopsin 2 (KR2), wild type (natural protein)
# chain: MTQELGNANFENFIGATEGFSEIAYQFTSHILTLGYAVMLAGLLYFILTIKNVDKKFQMSNILSAVVMVSAFLLLYAQAQNWTSSFTFNEEVGRYFLDPSGDLFNNGYRYLNWLIDVPMLLFQILFVVSLTTSKFSSVRNQFWFSGAMMIITGYIGQFYEVSNLTAFLVWGAISSAFFFHILWVMKKVINEGKEGISPAGQKILSNIWILFLISWTLYPGAYLMPYLTGVDGFLYSEDGVMARQLVYTIADVSSKVIYGVLLGNLAITLSKNKELVEANS
# modifications: retinal covalently bound to Lys255 via the Schiff base
# Columns and labels:
# Experiment in all cases: crystal structure
# [1] = target: KR2 G263F mutant (Krokinobacter eikastus)
# [2] = target: KR2 S254A mutant (Krokinobacter eikastus)
# crystal structure = target: the molecule itself
molecule,measurement,setting,value
KR2 G263F mutant (natural protein),stoichiometry N,[1],5
KR2 S254A mutant (natural protein),stoichiometry N,[2],5
B1,stoichiometry N,crystal structure,5
